The chains are these.
B1: hu94B2 HC3 + LC11 (antibody, V domains shown)
VH: EVQLVQSGAEVKKPGASVKVSCKASGYSLTGYTMNWVRQAPGQGLEWIGLISPYNGVTSYNQKFKGRATITVDKSTSTAYLELSSLRSEDTAVYYCARQGAYWGQGTLVTVSS
VL: DVVMTQTPLSLPVTPGQPASISCKSSQSLLDSDGKTYLNWYLQKPGQSPQRLIYLVSKLDSGVPDRFSGSGSGTDFTLKISRVEAEDVGVYYCWQGTHFPWTFGQGTKVEIK
B2: hu94B2 HC1 + LC11 (antibody, V domains shown)
VH: EVQLVQSGAEVKKPGASVKVSCKASGYSLTGYTMNWVRQAPGQGLEWIGLISPYNGVTSYNQKFKGRATLTVDKSTSTAYLELSSLRSEDTAVYYCARQGAYWGQGTLVTVSS
VL: DVVMTQTPLSLPVTPGQPASISCKSSQSLLDSDGKTYLNWYLQKPGQSPQRLIYLVSKLDSGVPDRFSGSGSGTDFTLKISRVEAEDVGVYYCWQGTHFPWTFGQGTKVEIK
B3: 93A8-D2 (antibody, mouse IgG2a, V domains shown)
VH: EVQLQQSGPVLVKPGASVKMSCKASGYTFTDYYVNWVKQSHGKGLEWIGLINPNNGRTSYNQNFNDKATLTVDKSSSTAFMDLNSLTSEDSAVYYCTREGGTGYWGQGTTLSVSS
VL: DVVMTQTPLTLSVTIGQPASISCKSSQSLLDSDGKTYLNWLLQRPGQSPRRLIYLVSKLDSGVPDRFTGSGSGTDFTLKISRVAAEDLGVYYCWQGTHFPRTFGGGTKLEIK
B4: 52F6-F11 (antibody, V domains shown)
VH: QVQLQQSGTELAKPGASVKLSCKASGYTFTHYWMHWIKQRPGQGLEWIGYIYPTNDYTKYNQNFRDKATLTADESSNSAYMQLNSLTYEDSAVYYCARAGNRVFDFWGQGTTLTVSS
VL: QAVVTQESALTTSPGETVTLTCRSSTGAVTTSNFANWVQEKPDHLFTGLIGGTNNRAPGVPARFSGSLIGDKAALTITGAQTEDEAIYFCALWYSNLWVFGGGTKLTVL
notes: hybridoma supernatant
B5: 65B1-A2 (antibody, V domains shown)
VH: QVQLKESGPGLVAPSQSLSITCTISGFSLTTYGVHWVRQPPGKGLEWLVVIWSDGSTTYNSALKSRLSISKDNSKSQVFLKMNSLQTDDTAMYYCARQGGFITTAYYAMDYWGQGTSVTVSS
VL: DIVMSQSPSSLAVSAGEKVTMSCKSSQSLLNSRTRKNYLAWYQQKPGQSPKLLIYWASTRESGVPDRFTGSGSGTDFTLTISSVQAEDLAVYYCKQSYNLYTFGGGTKLEIK
notes: hybridoma supernatant
B6: 231G3F10 (antibody, V domains shown)
VH: EVRLVESGGGLVQPKGSLKLSCAASGFSFNTYAMNWVRQAPGKGLEWVARIRSKRNNFATYYADSVKDRFTISRDDSKSMLYLQMNNLKTEDTAMYYCVRWGYDDPYAMDYWGQGTSVTVSS
VL: NIMMTQSPSSLAVSAGEKVTMSCKSSQSVLYSSNQKNYLAWYQQKPGQSPKLLIYWASARESGVPDRFTGSGSGTDFTLTISSVQAEDLAVYYCHQYFSSFTFGSGTKLEIK
B7: 83E10-D6 (antibody, V domains shown)
VH: EVQLQQSGAELVRSGASVKLSCTASGFNIKDYYIQWVKQRPEQGLEWIGWIDPENGDTDYAPKFQGKATMTADTSSNTAYLQFSSLTSEDTAVYYCNRGWGYWGQGTTLTVSS
VL: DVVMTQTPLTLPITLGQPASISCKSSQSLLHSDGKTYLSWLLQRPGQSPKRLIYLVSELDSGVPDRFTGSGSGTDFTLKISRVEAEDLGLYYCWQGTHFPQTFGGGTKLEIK
notes: hybridoma supernatant
B8: 71H8-D6 (antibody, V domains shown)
VH: EVQLQQSGAELVRSGASVKLSCTASGFNIKDYYIQWVKQRPEQGLEWIGWIDPENGDTDYAPKFQGKATMTADTSSNTAYLQFSSLTSEDTAVYYCNRGWGYWGQGTTLTVSS
VL: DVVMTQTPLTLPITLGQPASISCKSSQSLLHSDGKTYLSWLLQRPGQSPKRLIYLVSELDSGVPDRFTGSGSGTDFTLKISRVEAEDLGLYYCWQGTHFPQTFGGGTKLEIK
notes: hybridoma supernatant
B9: 22G7-C9 (antibody, V domains shown)
VH: QIQLVQSGPELKKPGETVKISCKASGYTFTDCSIHWVKQAPGEGLKWMGWINTETGEPSYADDFKGRFAFSLETSASTAFLQINNLKSEDTASYFCGTAYYRYDGALDYWGQGTSVTVSS
VL: DIVLTQSPASLAVSLGQRATISCRASQSVSTSSYSYMHWFQQKPGQPPKLLIKYASNLESGVPARFSGSGSGTDFTLNIHPVEEEDTATYYCQHSWELPWTFGGGTKLEIK
notes: hybridoma supernatant
B10: 126F11-G11 (antibody, mouse IgG2a, V domains shown)
VH: EVQLQQSGAELVRPGASVKLSCTASGFNIKDDYMHWVKQRPEQGLEWIGWIDPENGDTEYASKFQGKATITTDTSSNTAYLQLSSLTSEDTAVYYCLDFAYGYWGQGTTLTVSS
VL: DVLMTQTPLSLPVSLGDQASISCRSSQSIVHSNGNTYLEWYLQKPGQSPKLLIYKVSNRFSGVPDRFSGSGSGTDFTLKISRVEAEDLGVYYCFQGSHVPPAFGGGTKLEIK
B11: 49G10-F4 (antibody, V domains shown)
VH: QVQLQQPGAELVQPGASVKLSCKASGYTFTNYWMQWIKQRPGQGLEWIGEIDPSDSYTNYNQNFKDKATLTVDTSSRTAYMQLSSLTSEDSAVYYCTRRWYINSVRYFDVWGTGTTVTVSA
VL: DVLMTQTPLSLSASLGDQASISCRSSQSIVHSNGNIYLEWYLQKPGQSPKLLIYKVSNRFSGVSDRFSGSGSGTDFTLKISRVEAEDLGVYYCFQGAHVPFTFGAGTKLEIK
notes: hybridoma supernatant
B12: 30A1-C9 (antibody, V domains shown)
VH: GVQLQQSGPELVKPGASVKISCKTSGYTFTEYTMHWMKQSHGKSLEWIGGIDPNTGNTNYNQKFKGKATLTVDKSSSTAYMDLRSLTSEDSAVYYFYGSGYWGQGTILTVSS
VL: DVLMTQSPLSLPVSLGDQASISCRSSQSIVHSNGNTYLEWFLQKPGQSPKLLIYKVSNRFSGVPDRFSGSGSGTDFTLKISRVEAEDLGVYYCFQASHVPRTFGGGTKLEIK
notes: hybridoma supernatant
B13: 307H3E8 (antibody, V domains shown)
VH: EVKFEESGGGLVQPGGSMKLSCVASGFTFSNYWMNWVRQSPEKGLEWVAQIRLKSDNHATHYAESVKGRFTISRDDSKSTVYLQMNNLGAEDTGIYFCTEGGAYFDYWGQGTTLTVSS
VL: DVVMTQTPLSLPVSLGDQASISCRSSQNLVHSNGNTYFHWYLQKPGQSPKLLIYKVSNRFSGVPDRFSGSGSGTDFTLKISRVEAEDLGVYVCSQSTHVPPTFGGGTKLEIK
B14: 125B11-H3 (antibody, mouse IgG2a, V domains shown)
VH: EVKLEESGGGLVQPGGSMKLSCVASRFIFSNYWMNWVRQSPEKGLEWVAQIRLKSDNYATHYAESVKGRFTISRDDSKSSVYLQMNNLRAEDTGIYYCTGGTTYWGQGTTLTVSS
VL: DIVMTQSQKFLSTSVGDRVNITCKASQNVGTAVAWYQQKPGQSPGLLIYSASIRYTGVPDRFTGNGSGTDFTLTISDMQSEDLADYFCQQFRTYPYTFGGGTKLEIK
notes: also called 125B1-H3
B15: 113F5-F7 (antibody, V domains shown)
VH: EVKLEESGGGLVQPGGSMRLSCVASEFTFSNYWMNWIRQSPEKGLEWVAQIRLKSDNYATHYAESVKGRFTISRDASNFSVYLQMNNLRAEDTGIYYCTGGTSYWGQGTTLTVSS
VL: DIVMTQSQKIMSTSVGDRVSITCKASQNVGTAVAWYQQRPGHSPKLLIYSASRRFSGVPDRFTGSGSGTDFTLTIINVQSEDLADYFCQQFSTYPYTFGVGTKLEIK
notes: hybridoma supernatant
B16: 7A11-C12 (antibody, V domains shown)
VH: QIQLVQSGPDLKKPGETVKISCKASGYTFTNYGMNWVKQAPGKGLKWMGWINTNTGEPTYAEEFKGRFAFSLETSASTAYLQIDNLKNEDTATYFCARGTVSFPYWGQGTLVTVSA
VL: DVVMSQTPLSLPVSLGDHASISCRSSQNLVHSDGNTYLHWYLQKPGQSPKLLIYKVSNRFSGVPDRFSGSGSGTDFTLKISRVEAEDLGVYFCSQSTHVIFTFGSGTKLEIK
notes: hybridoma supernatant

The source of these data is patent US20190367592A1 (AC IMMUNE, published 2019).

The target in one test is T1, recombinant human Tau monomer, 2N4R isoform (amino acids 2-441) (human, UniProt P10636-8 2-441).
T1 construct: range 2-441; N-terminal His-tag removed with TEV protease; also called monomeric Tau
T1 sequence (P10636 other isoform, or with tags, fused parts or gaps limits assumed): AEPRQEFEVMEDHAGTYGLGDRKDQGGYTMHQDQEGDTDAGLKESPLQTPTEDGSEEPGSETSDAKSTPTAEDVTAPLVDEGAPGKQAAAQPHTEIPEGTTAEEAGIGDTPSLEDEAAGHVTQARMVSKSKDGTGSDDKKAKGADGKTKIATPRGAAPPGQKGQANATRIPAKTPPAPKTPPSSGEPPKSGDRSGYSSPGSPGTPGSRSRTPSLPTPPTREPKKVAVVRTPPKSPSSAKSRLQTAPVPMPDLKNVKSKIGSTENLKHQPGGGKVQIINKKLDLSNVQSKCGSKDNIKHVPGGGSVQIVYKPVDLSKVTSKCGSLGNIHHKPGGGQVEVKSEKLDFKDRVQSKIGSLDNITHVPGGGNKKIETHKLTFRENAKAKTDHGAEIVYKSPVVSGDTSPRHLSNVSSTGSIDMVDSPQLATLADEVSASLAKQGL
Put plainly: SPR screen, hIgG captured, Tau monomer analyte. An excerpt:
Antibody 125B11-H3 was humanized onto VH3 and Vκ1 consensus frameworks. The heavy chain graft included murine residues at position 78 (Kabat numbering system). The Vκ1 graft included murine residues in framework positions 43 and 87. The light chain of 113F5-F7 was also humanized onto the Vκ1 framework, with additional murine residues at framework positions 43 and 87. Humanized variant heavy chains (125B11) and light chains (125B11 and 113F5-F7) were co-transfected in multiple combinations and purified in 96-well format as described above. Humanized variants were then screened for affinity for human Tau monomer using the Biacore human IgG capture kit, a Series S CM5 chip and a Biacore T200 instrument. Antibodies were diluted to 2 μg/ml and captured for 15 seconds at 10 μl/min. Association and dissociation of 0, 100 and 500 nM human Tau monomer in HBSP was monitored for 180s and 300s respectively at a flow rate of 40 μl/min. A 1:1 binding model was applied to the results (Table 9).
Variants hu125B11.v17 (HC3+LC1), hu125B11.v26 (HC4+LC2) and hu125B 11.v28 (HC4+LC4) were selected for high-resolution kinetic analysis based on the affinity screen (Table 10). Antibody 94B2-C1 was humanized onto VH1 and Vx2 frameworks. The heavy chain graft also included murine residues at position 28, 29, 67, 69, 71, and 73 (Kabat numbering system). The Vκ2 graft also included murine residues in framework positions 2, 36, and 46. […] Variant hu94B2.v105 (heavy chain variant 94B2.HCl, light chain variant 94B2.LC13) was selected for detailed SPR characterization (Table 11).
As for B1, the Kd came out at 69.3 nM.

For B2, the Kd stood at 91.5 nM.

The target in another test is T2, full-length human Tau (flTau) (human, UniProt P10636-8 1-441).
T2 construct: range 1-441; bought (SignalChem); also called human Tau-441
T2 sequence (P10636 other isoform, or with tags, fused parts or gaps limits assumed): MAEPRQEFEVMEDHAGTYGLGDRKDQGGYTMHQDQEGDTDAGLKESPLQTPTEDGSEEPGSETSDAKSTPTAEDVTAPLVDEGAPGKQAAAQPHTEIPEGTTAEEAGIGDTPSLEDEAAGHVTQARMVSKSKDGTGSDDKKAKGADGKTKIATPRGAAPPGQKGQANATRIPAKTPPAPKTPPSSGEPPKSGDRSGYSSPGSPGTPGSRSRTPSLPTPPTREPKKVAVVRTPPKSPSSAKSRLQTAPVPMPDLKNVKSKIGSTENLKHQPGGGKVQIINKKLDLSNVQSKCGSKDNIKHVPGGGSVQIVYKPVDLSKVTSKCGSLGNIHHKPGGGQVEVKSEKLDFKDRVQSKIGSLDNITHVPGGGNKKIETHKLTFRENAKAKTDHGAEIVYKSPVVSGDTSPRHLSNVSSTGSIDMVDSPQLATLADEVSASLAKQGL
Kind of test: SPR, hybridoma Ab on anti-IgG chip, flTau analyte. The protocol:
Affinity of non-purified antibodies in serum-free hybridoma supernatants was estimated by surface plasmon resonance using a Biacore T-100 instrument (GE Healthcare, United Kingdom). Antibodies were immobilized onto an anti-IgG biosensor chip, and flTau (SignalChem, Canada) was used as the target analyte. Kinetic analysis was done using a 1:1 Langmuir fit model.
For affinity measurements to flTau, antibodies were measured using SPR on a Biacore instrument, with the KDs determined. Biacore affinity measurements were done by immobilizing antibodies on an anti-IgG chip and using flTau as the target analyte.
The molecule B3 gave a dissociation constant (Kd) of 4.3 nM.

For the molecule B4, binding was characterised by a dissociation constant (Kd) of 8.4 nM.

Molecule B5 displayed an equilibrium dissociation constant (Kd) of 0.8 nM.

The molecule B6 came in with a Kd of 0.2 nM.

Turning to B7, the affinity, expressed as Kd, was 0.4 nM.

The molecule B8 registered a dissociation constant Kd of 0.8 nM.

B9 displayed a dissociation constant Kd of 36 nM.

In turn, B10 showed a dissociation constant (Kd) of 4.2 nM.

Take B11: the Kd came to 1 nM.

For B12, the affinity, expressed as Kd, was 0.6 nM.

Molecule B13 came in with a dissociation constant Kd of 1 nM.

In turn, B14 registered a dissociation constant (Kd) of 6 nM.

On to B15, for which binding was characterised by a dissociation constant (Kd) of 2.4 nM.

Molecule B16 displayed an equilibrium dissociation constant (Kd) of 0.5 nM.

The target in the next test is T1, recombinant human Tau monomer, 2N4R …. Put plainly: SPR, mIgG2a captured, Tau monomer analyte, 1:1 fit. From the text:
Antibody heavy and light chains were constructed via gene synthesis and subcloning of the resulting DNA into murine IgG2a (heavy chain) and murine kappa (light chain) mammalian expression vectors. Antibodies were expressed in CHO or 293T cells by transient co-transfection of the heavy chain and light chain plasmids and were purified with affinity resin MabSelectSure (GE Healthcare Life Sciences). Purified recombinant antibodies were screened for binding to Tau monomer protein on a Biacore T200 surface plasmon resonance instrument using a mouse IgG capture kit and a Series S CM5 chip. Antibodies in mIgG2a format diluted in 10 mM HEPES pH7.4, 150 mM NaCl, 0.05% Tween 20 (running buffer, HBSP) were captured for 30 or 45 seconds at a concentration of 1 μg/ml (antibodies 26C1, 94B2-C1, 52F6-F11.v1, 52F6-F11.v2, 11E10-B8, 55E7-F11, 125B1-H3, 123E9-A1, 30G1-B2, 66F5-A1, 89F4-A1, 93A8-D2 and 126F11-G11) or for 70 or 150 seconds at a concentration of 0.1 μg/ml (antibodies 19H6-F7, 3A4-H4, 54C1-H11 and 37D3-H9) using a flow rate of 10 μl/min. […] Association and dissociation times were monitored for 180-480 seconds and for 300-600 seconds respectively. Antibody 37D3-H9 was selected for further analysis due to the high affinity (Table 6) and the absence of NXS/T glycosylation motifs in the CDRs.
For the molecule B3, the Kd came to 6 nM, the koff came to 0.002 s⁻¹ and the on-rate (kon) is 300000 M⁻¹ s⁻¹.

B10: the dissociation constant Kd was determined as 3 nM, the koff was 0.004 s⁻¹ and the kon was 2e+06 M⁻¹ s⁻¹.

Take B14: the dissociation constant Kd worked out at 5 nM, the koff worked out at 0.0003 s⁻¹ and the kon is 50000 M⁻¹ s⁻¹.

As usually defined, the Kd is the equilibrium constant for the complex coming apart. The term koff denotes a measure of how fast the partners let go of each other. In general, kon refers to the rate constant with which the complex forms.
